Positions count from the first letter of the chain named.
B1: 299v1 (antibody, human IgG1, V domains shown)
VH: QVQLVESGGGVVQPGRSLRLSCAASGFTFSSYDMHWVRQAPGKGLEWVAVIWSDGSIKYYADSVKGRFTISRDNSKNTLYLQMNSLRAEDTAVYYCAREVESAMGGFYYNGMDVWGQGATVTVSS
VL: DIQMTQSPSSLSASVGDRVTITCRASQGIRIDLGWYQQKPGKAPKRLIYAASTLQSGVPSRFSGSGSGTEFIFTISSLQPEDFASYYCLQHKSYPLTFGGGTKVEIK
notes: XENOMAX derived, recombinant human IgG1 kappa; also called SC299V1
B2: 250 (antibody, human IgG1, V domains shown)
VH: EVQLVESGGGLIQPGGSLRLSCAASGFTVSSNYMSWVRQAPGKGLEWVSVIYSGDRTYYADSVKGRFTISRDNSKNTLYLQMNSLRAEDTAVYYCARGEGGFDYWGQGTLVTVSS
VL: EIVMTQSPATLSVSPGERATLSCRASQSVTSNLAWYQQKPGQAPRLLIHGASIRATGLPARFSGSGSGTEFTLTISSLQSEDFAVYYCQQYNYWWTFGQGTKVEIK
notes: XENOMAX derived, recombinant human IgG1 kappa; also called 250Ab; SC250
B3: 269 (antibody, human IgG1, V domains shown)
VH: B2 VH with G26E, S31R
VL: B2 VL with T30S
notes: XENOMAX derived, recombinant human IgG1 kappa; also called 269Ab; SC269
B4: 4.17 g1 (antibody, human IgG1, V domains shown)
VH: QVQLVESGGGVVQPGRSLRLSCTTSGFTFSNYGMHWVRQAPGKGLEWVAVIWYDGSIKYYVDSVKGRFTISRDNSKNTLYLQMNSLRAEDTAVYYCAREKDCGGDCYSHYGMDVWGQGTTVTVSS
VL: B1 VL with I31N, T53S, I72T, F73L, S85T, K92M, Y94L
B5: 3.2 g1 (antibody, human IgG1, V domains shown)
VH: EVQLVQSGAEVKKPGESLKISCKTSEYSFTSYWIGWVRQMPGKGLEWMGIIYLGDSDTRYSPSFQGQVTISADKSISTAYLQWSSLKASDTAMYYCARSNWGLDYWGQGTLVTVSS
VL: QSVLTQPPSVSGAPGQRVTISCTGSSSNIGAGYDVHWYQQFPGTAPKLLIQGNSNRPSGVPDRFSGSKSGTSASLAITGLQAEDEADYYCQSYDSSLSGSVFGGGTKLTVL
B6: 282 (antibody, human IgG1, V domains shown)
VH: QVQLVESGGGVVQPGRSLRLSCAASGFTVSSYGMHWVRQAPGKGLEWVAVIWSNGSNKYYADSVKGRFTISRDNSKNTLYLQMNSLRAEDTAVYYCARDNGVYVGYAYYYGMDVWGQGTTVTVSS
VL: B1 VL with I31N, T53S, Q55H, I72T, F73L, S85T, K92N, L96W, G100Q
notes: XENOMAX derived, recombinant human IgG1 kappa; also called 282 Ab; SC282
B7: 291 (antibody, human IgG1, V domains shown)
VH: QVQLVESGGSVVQPGRSLRLSCAASGFTFSNYGIHWVRQAPGKGLEWVAVIWSDGSNKYYADSVKGRFTISRDNSKNTLYLQMNSLRAEDTAVYYCARELPNSGSYSGYYYYYGMDVWGQGTTVTVSS
VL: B1 VL with I31N, T53S, I72T, F73L, S85T, K92C, S93C
notes: XENOMAX derived, recombinant human IgG1 kappa; also called 291 Ab; SC291
B8: 313 (antibody, human IgG1, V domains shown)
VH: QVQLVESGGGVVQPGRSLRLSCAASGFTFSNHDIHWVRQAPGKGLEWVAVIWSDGSNKYYADSVKGRFTISRDNSKNTLYLQMNSLRAEDTAVYYCAREKMATIKGYYYYGMDVWGQGTTVTVSS
VL: B1 VL with I31N, T53S, Q55E, T69P, I72T, F73L, S85T, K92N, K107Q
notes: Recombinant human IgG1 kappa; also called 313 Ab; SC313
B9: H/M BglI chimeric TNFα (human 1-36, murine 37-157) (ligand)
chain: VRSSSRTPSDKPVAHVVANPQAEGQLQWLNRRANALLANGMDLKDNQLVVPADGLYLVYSQVLFKGQGCPDYVLLTHTVSRFAISYQEKVNLLSAVKSPCPKDTPEGAELKPWYEPIYLGGVFQLEKGDQLSAEVNLPKYLDFAESGQVYFGVIAL
notes: Murine range is printed as 37-157 in human-aligned numbering; also called H/MBgl1; Hu/MBgl1
B10: H/M PvuII chimeric TNFα (human 1-125, murine 126-157) (ligand)
chain: VRSSSRTPSDKPVAHVVANPQAEGQLQWLNRRANALLANGVELRDNQLVVPSEGLYLIYSQVLFKGQGCPSTHVLLTHTISRIAVSYQTKVNLLSAIKSPCQRETPEGAEAKPWYEPIYLGGVFQLEKGDQLSAEVNLPKYLDFAESGQVYFGVIAL
notes: also called Hu/M PVu11
B11: H/M HincII chimeric TNFα (human 1-91, murine 92-157) (ligand)
chain: B10 chain with I97V, Q102P, R103K, E104D, A111L
notes: Murine range printed 92-157 (human-aligned); also called Hu/M Hin C l1
B12: Rabbit R014 Fab (Fab, V domains shown)
VH: QSLEESGGRLVTPGTPLTLTCTVSGIDLSSNTMGWFRRAPGKGLEWIGIIISSGTTYYASWVKGRFTISKTSTTVDLKITRPTTEDTATYFCARGWYEFNLWGPGTLVTVSS
VL: DVVMTQTPASVEAAVGGTVTIKCQASENIDILLAWYQQKVGQPPKLLIYRASKLASGAPSRFSGSGSGTEFTLTISDLECGDAATYYCQSNVGSTARSSYGNAFGGGTEVVVK
notes: Fab made by papain cleavage of R014

What was measured:
[1] = target: T1, human TNFα (Tumor Necrosis Factor-alpha), soluble (human, UniProt P01375 77-233); assay: KinExA, TNFα counted as three monomers
T1 construct: Recombinant (R&D 210-TA/CF) in screens; biotinylated in the limited antigen assay; also called hTNFα; H-TNFα
Procedure: (§1) The kinetic measurements of the anti-TNFα antibodies were evaluated using KinExA® and BIACORE® technologies. The KinExA® method involves solution-based determination of formal affinity measurements at equilibrium. To measure the binding kinetics of each human anti-TNFα antibody, two experiments in replicates of three were performed. In both experiments a known concentration of antigen was titrated and a different antibody concentration was added to each antigen titration and allowed to reach binding equilibrium. […] The results were analyzed by dual curve analysis. […] In addition, to negate the possibility of avidity effects, Fab fragments were generated by papain cleavage and the kinetic analysis was repeated (see Table 24).

[2] = target: T1, human TNFα (Tumor Necrosis …); assay: KinExA, TNFα counted as one trimer
Procedure: as §1

human TNFα R31Q mutant = human TNFα R31Q mutant (human, UniProt P01375 77-233); assay: ELISA on chimeric/mutant TNFα
From the text: (§2) In order to define the binding site for different antibodies, a number of residues of hTNFα were mutated using site directed mutagenesis. A panel of antibodies was screened for binding by an ELISA assay. […] Histidine at position 73 was deleted, an example is illustrated in Table 19.

[3] = target: T1, human TNFα (Tumor Necrosis …); assay: ELISA on chimeric/mutant TNFα
From the text: as §2

human TNFα R131Q mutant = human TNFα R131Q mutant (human, UniProt P01375 77-233); assay: ELISA on chimeric/mutant TNFα
From the text: as §2

[4] = target: human TNFα R31Q, Q27E mutant (human, UniProt P01375 77-233); assay: ELISA on chimeric/mutant TNFα
From the text: as §2

[5] = target: T2, human TNFα with histidine 73 deleted (human, UniProt P01375 77-233); assay: ELISA on chimeric/mutant TNFα
T2 construct: Deletion of His73 written as two joined ranges; also called His 73del
From the text: as §2

[6] = target: T1, human TNFα (Tumor Necrosis …); assay: cell-based or functional assay
[7] = target: B10; assay: ELISA on chimeric/mutant TNFα
From the text: as §2

[8] = target: B11; assay: ELISA on chimeric/mutant TNFα
From the text: as §2

[9] = target: B9; assay: ELISA on chimeric/mutant TNFα
From the text: as §2

[10] = target: T3, p75-hFc construct (R&D Systems) (UniProt P20333 23-257); assay: receptor-Fc binding to TNFα constructs
T3 construct: Described as similar to etanercept (Enbrel); also called p75s-hFc; Etanercept surrogate
T3 sequence (looked up): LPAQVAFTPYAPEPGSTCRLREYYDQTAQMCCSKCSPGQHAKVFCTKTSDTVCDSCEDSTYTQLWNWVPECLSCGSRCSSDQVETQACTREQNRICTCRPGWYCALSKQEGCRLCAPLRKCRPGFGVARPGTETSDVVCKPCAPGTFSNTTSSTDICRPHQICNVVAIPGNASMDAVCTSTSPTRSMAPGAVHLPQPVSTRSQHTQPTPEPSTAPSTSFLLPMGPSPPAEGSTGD

p55-hFc (R&D) = target: T4, p55-hFc (R&D) (UniProt P19438 30-211, limits assumed); assay: receptor-Fc binding to TNFα constructs
T4 construct: Bought reagent; also called TNFα receptor p55-hFc
T4 sequence (looked up): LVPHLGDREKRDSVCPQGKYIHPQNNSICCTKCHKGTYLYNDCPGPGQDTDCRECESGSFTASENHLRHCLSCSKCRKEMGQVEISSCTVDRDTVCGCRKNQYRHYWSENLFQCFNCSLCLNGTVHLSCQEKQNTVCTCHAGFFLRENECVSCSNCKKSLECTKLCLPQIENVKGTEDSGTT

[11] = target: T1, human TNFα (Tumor Necrosis …); assay: KinExA, Fab from papain cleavage
Procedure: as §1

T2 sequence (P01375 other isoform, or with tags, fused parts or gaps): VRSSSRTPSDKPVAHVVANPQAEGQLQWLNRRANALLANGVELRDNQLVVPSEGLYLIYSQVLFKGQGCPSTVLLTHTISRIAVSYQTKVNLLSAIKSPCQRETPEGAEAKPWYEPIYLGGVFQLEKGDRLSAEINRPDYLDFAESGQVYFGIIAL

B1 was tested, and the Kd [1] was 1.89 pM, the “Kd (M) High” value [1] was 2.76e-12 M and the “Kd (M) Low” value [1] was 1.29e-12 M. For the same binder, the Kd [2] was 0.63 pM, the “Kd (M) High” value [2] was 9.2e-13 M and the “Kd (M) Low” value [2] was 4.3e-13 M.

B2: binds (human TNFα R31Q mutant); binds [3]; binds (human TNFα R131Q mutant). B2: binds [4]; binds [5].

B3: binds (human TNFα R31Q mutant); binds [3]; binds (human TNFα R131Q mutant). B3: binds [4]; binds [5].

For B4, the “IC50 1 hr Pre-incubation, TNF induced apoptosis in MCF-7 cells” value [6] was 256 pM and the “IC50 18 hr Pre-incubation, TNF induced apoptosis in MCF-7 cells” value [6] was 40.4 pM.

With B5 the “IC50 1 hr Pre-incubation, TNF induced apoptosis in MCF-7 cells” value [6] was 93.8 pM and the “IC50 18 hr Pre-incubation, TNF induced apoptosis in MCF-7 cells” value [6] was 38.6 pM.

B6: binds (human TNFα R31Q mutant); binds [3]; binds (human TNFα R131Q mutant). B6: binds [4]; binds [5].

B7: binds [7]; binds [8]; no binding (human TNFα R31Q mutant). B7: binds [9]; binds (human TNFα R131Q mutant).

B8: binds [7]; binds [8]; no binding (human TNFα R31Q mutant). B8: binds [9]; binds [3]; binds (human TNFα R131Q mutant). B8: binds [5].

B9: binds [10]; binds (p55-hFc (R&D)).

B10: binds [10]; binds (p55-hFc (R&D)).

B11: binds [10]; binds (p55-hFc (R&D)).

With B12 the Kd [11] was 0.638 pM, the “Kd (M) High” value [11] was 1.94e-10 M and the “Kd (M) Low” value [11] was 2.09e-15 M.

Reference: US20050049402A1 (Amgen, published 2005)
